# From US20220010021A1 (Sanofi, published 2022)
# Substitutions are numbered along the chain they refer to. Numbers in names are those of the source.
# T1: human beta-Klotho (KLB) (human, UniProt Q86Z14 53-997)
# T1 construct: Bought soluble protein; also called human KLB; ß-Klotho
# T1 sequence (looked up): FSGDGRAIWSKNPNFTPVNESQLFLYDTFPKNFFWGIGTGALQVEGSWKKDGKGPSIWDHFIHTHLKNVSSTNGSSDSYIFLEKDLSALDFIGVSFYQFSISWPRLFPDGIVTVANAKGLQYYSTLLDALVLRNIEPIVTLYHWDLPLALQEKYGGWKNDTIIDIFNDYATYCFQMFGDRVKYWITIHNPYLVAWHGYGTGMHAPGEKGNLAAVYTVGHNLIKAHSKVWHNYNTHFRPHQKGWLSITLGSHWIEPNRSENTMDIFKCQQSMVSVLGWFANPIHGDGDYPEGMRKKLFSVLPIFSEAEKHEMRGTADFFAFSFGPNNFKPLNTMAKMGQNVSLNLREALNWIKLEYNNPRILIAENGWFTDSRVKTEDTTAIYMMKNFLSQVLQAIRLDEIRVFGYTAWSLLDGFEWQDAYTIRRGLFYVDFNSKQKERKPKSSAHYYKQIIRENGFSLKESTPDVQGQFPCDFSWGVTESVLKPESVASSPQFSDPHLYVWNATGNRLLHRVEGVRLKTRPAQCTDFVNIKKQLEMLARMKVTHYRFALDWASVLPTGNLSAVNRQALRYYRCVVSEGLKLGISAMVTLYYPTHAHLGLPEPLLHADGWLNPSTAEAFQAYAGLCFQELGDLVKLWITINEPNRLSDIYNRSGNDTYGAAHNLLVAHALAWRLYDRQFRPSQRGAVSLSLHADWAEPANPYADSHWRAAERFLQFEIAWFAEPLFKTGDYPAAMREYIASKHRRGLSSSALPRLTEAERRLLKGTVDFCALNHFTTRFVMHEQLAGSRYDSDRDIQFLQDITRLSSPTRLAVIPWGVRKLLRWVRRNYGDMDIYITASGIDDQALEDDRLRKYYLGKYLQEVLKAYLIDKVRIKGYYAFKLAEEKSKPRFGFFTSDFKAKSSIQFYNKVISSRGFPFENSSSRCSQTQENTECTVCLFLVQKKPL
# B1: 16H7 light chain variant E30L (antibody, V domains shown)
# VH: not shown
# VL: SYVLTQPPSVSVAPGQTARITCGGNNIGSLSVHWYQQKPGQAPVLVVYDDSDRPSGIPERFSGSNSGNTATLTISRVEAGDEADYYCQVWDGNSDHVVFGGGTKLTVLG
# notes: copies: 2 + 2
# B2: 16H7 light chain variant I27N (antibody, V domains shown)
# VH: not shown
# VL: B1 VL with I27N, L30E
# notes: copies: 2 + 2
# B3: 16H7 light chain variant I27R (antibody, V domains shown)
# VH: not shown
# VL: B1 VL with I27R, L30E
# notes: copies: 2 + 2
# B4: 16H7 light chain variant G28F (antibody, human IgG4 S228P, lambda, V domains shown)
# VH: not shown
# VL: B1 VL with G28F, L30E
# B5: 16H7 light chain variant E30Y (antibody, V domains shown)
# VH: not shown
# VL: B1 VL with L30Y
# notes: copies: 2 + 2
# B6: 16H7 light chain variant I27F (antibody, V domains shown)
# VH: not shown
# VL: B1 VL with I27F, L30E
# notes: copies: 2 + 2
# B7: 16H7 light chain variant G28K (antibody, human IgG4 S228P, lambda, V domains shown)
# VH: not shown
# VL: B1 VL with G28K, L30E
# B8: 16H7 light chain variant I27A (antibody, human IgG4 S228P, lambda, V domains shown)
# VH: not shown
# VL: B1 VL with I27A, L30E
# B9: 16H7 light chain variant I27P (antibody, human IgG4 S228P, lambda, V domains shown)
# VH: not shown
# VL: B1 VL with I27P, L30E
# B10: 16H7 light chain variant G28W (antibody, human IgG4 S228P, lambda, V domains shown)
# VH: not shown
# VL: B1 VL with G28W, L30E
# B11: 16H7 light chain variant G28P (antibody, human IgG4 S228P, lambda, V domains shown)
# VH: not shown
# VL: B1 VL with G28P, L30E
# B12: 16H7 light chain variant I27M (antibody, human IgG4 S228P, lambda, V domains shown)
# VH: not shown
# VL: B1 VL with I27M, L30E
# B13: 16H7 light chain variant E30S (antibody, human IgG4 S228P, lambda, V domains shown)
# VH: not shown
# VL: B1 VL with L30S
# B14: 16H7 light chain variant G28C (antibody, human IgG4 S228P, lambda, V domains shown)
# VH: not shown
# VL: B1 VL with G28C, L30E
# B15: 16H7 light chain variant G28R (antibody, human IgG4 S228P, lambda, V domains shown)
# VH: not shown
# VL: B1 VL with G28R, L30E
# B16: 16H7 light chain variant G28S (antibody, human IgG4 S228P, lambda, V domains shown)
# VH: not shown
# VL: B1 VL with G28S, L30E
# B17: 16H7 light chain variant G28Y (antibody, human IgG4 S228P, lambda, V domains shown)
# VH: not shown
# VL: B1 VL with G28Y, L30E
# B18: 16H7 light chain variant E30T (antibody, V domains shown)
# VH: not shown
# VL: B1 VL with L30T
# notes: copies: 2 + 2
# B19: 16H7 light chain variant E30Q (antibody, V domains shown)
# VH: not shown
# VL: B1 VL with L30Q
# notes: copies: 2 + 2
# B20: 16H7 light chain variant I27Q (antibody, human IgG4 S228P, lambda, V domains shown)
# VH: not shown
# VL: B1 VL with I27Q, L30E
# B21: 16H7 light chain variant G28D (antibody, human IgG4 S228P, lambda, V domains shown)
# VH: not shown
# VL: B1 VL with G28D, L30E
# B22: 16H7 light chain variant G28E (antibody, human IgG4 S228P, lambda, V domains shown)
# VH: not shown
# VL: B1 VL with G28E, L30E
# B23: 16H7 light chain variant G28H (antibody, human IgG4 S228P, lambda, V domains shown)
# VH: not shown
# VL: B1 VL with G28H, L30E
# B24: 16H7 light chain variant G28L (antibody, human IgG4 S228P, lambda, V domains shown)
# VH: not shown
# VL: B1 VL with G28L, L30E
# B25: 16H7 light chain variant I27T (antibody, V domains shown)
# VH: not shown
# VL: B1 VL with I27T, L30E
# notes: copies: 2 + 2
# B26: 16H7 light chain variant E30R (antibody, V domains shown)
# VH: not shown
# VL: B1 VL with L30R
# notes: copies: 2 + 2
# B27: 16H7 light chain variant I27C (antibody, human IgG4 S228P, lambda, V domains shown)
# VH: not shown
# VL: B1 VL with I27C, L30E
# B28: 16H7 light chain variant I27V (antibody, V domains shown)
# VH: not shown
# VL: B1 VL with I27V, L30E
# notes: copies: 2 + 2
# B29: 16H7 light chain variant G28N (antibody, human IgG4 S228P, lambda, V domains shown)
# VH: not shown
# VL: B1 VL with G28N, L30E
# B30: 16H7 light chain variant E30N (antibody, V domains shown)
# VH: not shown
# VL: B1 VL with L30N
# notes: copies: 2 + 2
# B31: 16H7 light chain variant G28T (antibody, human IgG4 S228P, lambda, V domains shown)
# VH: not shown
# VL: B1 VL with G28T, L30E
# B32: 16H7 light chain variant G28I (antibody, human IgG4 S228P, lambda, V domains shown)
# VH: not shown
# VL: B1 VL with G28I, L30E
# B33: 16H7 light chain variant I27H (antibody, V domains shown)
# VH: not shown
# VL: B1 VL with I27H, L30E
# notes: copies: 2 + 2
# B34: 16H7 light chain variant E30M (antibody, V domains shown)
# VH: not shown
# VL: B1 VL with L30M
# notes: copies: 2 + 2
# B35: 16H7 light chain variant E30V (antibody, V domains shown)
# VH: not shown
# VL: B1 VL with L30V
# notes: copies: 2 + 2
# Columns and labels:
# [1] = molecular target: cell surface receptor composed of FGFR1c and co-receptor beta-Klotho (KLB) (human, UniProt P11362 22-822; Q86Z14 1-1044); experiment: cell-based or functional assay; on Mean E max, Luciferase reporter gene assay: reference of the scale not given here
# human beta-Klotho (KLB) = molecular target: T1, human beta-Klotho (KLB); experiment: BLI off-rate screen, supernatant;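 further: expression supernatants tested at 25 µg/mL, dissociation followed for 1800 s in D-PBS with 0.1% BSA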
# cell surface receptor composed of FGFR1c and co-receptor beta-Klotho (KLB), sequence (P11362 22-822, chain 1 of 2): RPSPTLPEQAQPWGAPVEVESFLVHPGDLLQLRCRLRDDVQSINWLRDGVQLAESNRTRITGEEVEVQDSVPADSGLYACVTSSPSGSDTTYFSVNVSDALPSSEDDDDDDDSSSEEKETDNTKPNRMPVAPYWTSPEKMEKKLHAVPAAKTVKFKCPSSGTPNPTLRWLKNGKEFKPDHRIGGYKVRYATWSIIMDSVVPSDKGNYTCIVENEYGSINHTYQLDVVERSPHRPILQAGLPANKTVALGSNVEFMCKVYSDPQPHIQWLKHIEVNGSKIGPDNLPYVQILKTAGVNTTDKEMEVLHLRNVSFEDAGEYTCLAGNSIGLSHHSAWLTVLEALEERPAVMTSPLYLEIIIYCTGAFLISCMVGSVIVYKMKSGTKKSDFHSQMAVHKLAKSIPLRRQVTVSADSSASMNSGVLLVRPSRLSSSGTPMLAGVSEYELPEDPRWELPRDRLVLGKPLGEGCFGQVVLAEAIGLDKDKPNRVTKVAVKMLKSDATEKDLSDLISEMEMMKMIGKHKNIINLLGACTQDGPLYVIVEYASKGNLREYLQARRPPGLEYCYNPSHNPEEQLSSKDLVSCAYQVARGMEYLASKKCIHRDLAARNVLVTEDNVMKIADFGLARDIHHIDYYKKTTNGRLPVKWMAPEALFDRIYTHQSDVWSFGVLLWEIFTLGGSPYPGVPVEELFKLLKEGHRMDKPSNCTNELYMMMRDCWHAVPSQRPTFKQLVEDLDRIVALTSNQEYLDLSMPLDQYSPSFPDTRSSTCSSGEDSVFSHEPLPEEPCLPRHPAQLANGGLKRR
# cell surface receptor composed of FGFR1c and co-receptor beta-Klotho (KLB), sequence (Q86Z14 whole entry, chain 2 of 2): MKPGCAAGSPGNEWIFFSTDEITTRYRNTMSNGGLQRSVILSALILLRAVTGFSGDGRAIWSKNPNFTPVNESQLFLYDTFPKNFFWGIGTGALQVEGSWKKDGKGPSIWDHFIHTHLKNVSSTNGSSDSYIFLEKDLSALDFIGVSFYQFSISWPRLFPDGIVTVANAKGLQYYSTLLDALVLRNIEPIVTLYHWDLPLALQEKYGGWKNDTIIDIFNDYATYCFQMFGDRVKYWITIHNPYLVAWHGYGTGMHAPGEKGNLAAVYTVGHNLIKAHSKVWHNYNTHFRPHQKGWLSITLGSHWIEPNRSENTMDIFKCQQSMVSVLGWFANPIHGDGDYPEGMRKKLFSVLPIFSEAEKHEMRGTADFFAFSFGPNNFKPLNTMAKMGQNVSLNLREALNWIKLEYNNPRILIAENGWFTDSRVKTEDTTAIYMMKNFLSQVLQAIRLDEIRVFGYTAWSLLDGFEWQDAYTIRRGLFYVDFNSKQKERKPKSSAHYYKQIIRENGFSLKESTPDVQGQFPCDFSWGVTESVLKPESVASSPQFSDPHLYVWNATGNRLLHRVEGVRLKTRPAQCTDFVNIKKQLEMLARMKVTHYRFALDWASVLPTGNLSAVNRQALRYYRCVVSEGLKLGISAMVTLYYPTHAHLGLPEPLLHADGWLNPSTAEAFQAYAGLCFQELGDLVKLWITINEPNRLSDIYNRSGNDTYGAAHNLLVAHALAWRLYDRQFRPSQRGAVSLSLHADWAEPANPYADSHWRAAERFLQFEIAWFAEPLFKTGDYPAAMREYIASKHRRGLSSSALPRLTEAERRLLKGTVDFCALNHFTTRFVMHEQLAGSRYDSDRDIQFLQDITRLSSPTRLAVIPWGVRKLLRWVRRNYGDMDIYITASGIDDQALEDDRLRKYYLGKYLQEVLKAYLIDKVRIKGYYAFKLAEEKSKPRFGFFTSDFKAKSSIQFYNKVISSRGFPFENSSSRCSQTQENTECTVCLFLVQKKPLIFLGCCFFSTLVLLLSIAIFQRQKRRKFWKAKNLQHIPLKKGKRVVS
Binder,"Mean E max, Luciferase reporter gene assay [1]","Mean EC50, Luciferase reporter gene assay [1]",koff (human beta-Klotho (KLB))
B1,96%,0.16 nM,6.9e-05 s⁻¹
B2,96%,0.162 nM,4.5e-05 s⁻¹
B3,105%,0.131 nM,2.2e-05 s⁻¹
B4,102%,0.124 nM,3.9e-05 s⁻¹
B5,107%,0.152 nM,7.6e-05 s⁻¹
B6,104%,0.118 nM,2e-05 s⁻¹
B7,108%,0.149 nM,3.3e-05 s⁻¹
B8,107%,0.111 nM,5.3e-05 s⁻¹
B9,107%,0.145 nM,3.5e-06 s⁻¹
B10,96%,0.142 nM,3.7e-05 s⁻¹
B11,103%,0.132 nM,6.2e-05 s⁻¹
B12,97%,0.087 nM,6e-05 s⁻¹
B13,114%,0.132 nM,1.6e-05 s⁻¹
B14,100%,0.103 nM,9.1e-06 s⁻¹
B15,102%,0.138 nM,8.5e-05 s⁻¹
B16,109%,0.14 nM,2.3e-06 s⁻¹
B17,109%,0.131 nM,5.3e-05 s⁻¹
B18,100%,0.105 nM,4.9e-05 s⁻¹

Binder,"Mean E max, Luciferase reporter gene assay [1]","Mean EC50, Luciferase reporter gene assay [1]",koff (human beta-Klotho (KLB))
B19,99%,0.123 nM,1e-07 s⁻¹
B20,103%,0.144 nM,6.1e-05 s⁻¹
B21,107%,0.126 nM,4e-05 s⁻¹
B22,105%,0.12 nM,1.8e-05 s⁻¹
B23,108%,0.165 nM,1.8e-05 s⁻¹
B24,104%,0.137 nM,6.1e-06 s⁻¹
B25,97%,0.152 nM,3.3e-05 s⁻¹
B26,96%,0.162 nM,3.7e-05 s⁻¹
B27,106%,0.16 nM,3.8e-05 s⁻¹
B28,104%,0.136 nM,3.3e-05 s⁻¹
B29,113%,0.111 nM,1.8e-05 s⁻¹
B30,110%,0.163 nM,2.4e-05 s⁻¹
B31,110%,0.187 nM,1.5e-06 s⁻¹
B32,112%,0.132 nM,3.3e-05 s⁻¹
B33,100%,0.098 nM,3.3e-05 s⁻¹
B34,100%,0.12 nM,3.8e-05 s⁻¹
B35,108%,0.14 nM,4.1e-05 s⁻¹
